# Laboratory results: PMC7347389
# Molecular target: Cys109 (UniProt position 128, ADAGFCYPPET)
# Assay: NMR
# Conditions: 25 °C (general NMR condition 'unless stated otherwise'; not stated specifically for the pH series); reduced nDsbD (C103 and C109 as thiols), isolated domain, folded, cap loop closed
substance,measurement,value
"Thiol:disulfide interchange protein DsbD, N-terminal domain (nDsbD) (Escherichia coli)",pKa,above 11
